The supplement of paper PMC7877785
± gives the uncertainty stated by the source.

Assay: self-splicing fitness, log relative to wild type (ln ratio); higher = more splicing; Tetrahymena group I intron in knt gene, E. coli kanamycin selection, DiMSum; sequences stand for … in CUCUCU…GGAGGGAAAAGUUAUCAGGCAUGCACCUGGUAGCUAGUCUUUAAACCAAUAGAUUGCAUCGGUUUAAAAGGCAAGACCGUCAAAUUGCGGGAAAGGGGUCAACAGCCGUUCAGUACCAAGUCUCAGGGGAAACUUUGAGAUGGCCUUGCAAAGGGUAUGGUAAUAAGCUGACGGACAUGGUCCUAACCACGCAGCCAAGUCCUAAGUCAACAGAUCUUCUGUUGAUAUGGAUGCAGUUCACAGACUAAAUGUCGGUCGGGGAAGAUGUAUUCUUCUCAUAAGAUAUAGUCGGACCUCUCCUUAAUGGGAGCUAGCGGAUGAAGUGAUGCAACACUGGAGCCGCUGGGAACUAAUUUGUAUGCGAAAGUAUAUUGAUUAGUUUUGGAGUACUCGUGGUCG
Outline: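 Pooled colonies went to amplicon sequencing on an Illumina HiSeq 2500 after six replicate transformations. The plates were LB agar with 100 μg/mL carbenicillin, 50 μM IPTG and 0.2% rhamnose, with or without 25 μg/mL kanamycin, incubated overnight at 37°C or 30°C. The E. coli BL21(DE3) library had all eight P1ex-region intron nucleotides randomised, the intron placed in the knt kanamycin-resistance gene on pET-22b(+). DiMSum fitness is the error-weighted combination of replicate fold changes, kanamycin against none, normalised to wild type.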

Row | Sequence | self-splicing fitness (ln) (30 °C) | self-splicing fitness (ln) (37 °C)
1 | CGCCAGCAAUAUUACGUCGA | -2.94 ± 0.12 | -1.24 ± 0.081
2 | CGCCAGCAAUAUUACGUGCG | -3.99 ± 0.26 | -2.33 ± 0.22
3 | CGCGAGCAAUAUUACGAACG | -3.04 ± 0.43 | -2.08 ± 0.32
4 | CGCGAGCAAUAUUACGAGAU | -2.7 ± 0.28 | -2.19 ± 0.26
5 | CGCGAGCAAUAUUACGAGCA | -1.27 ± 0.13 | -0.102 ± 0.18
6 | CGCGAGCAAUAUUACGCAGA | -1.75 ± 0.22 | -1.77 ± 0.18
7 | CGCGAGCAAUAUUACGCAGC | -3.62 ± 0.46 | -1.99 ± 0.34
8 | CGCGAGCAAUAUUACGCAGU | -2.99 ± 0.16 | -2.77 ± 0.17
9 | CGCGAGCAAUAUUACGCGCA |  | -2.91 ± 0.2
10 | CGCGAGCAAUAUUACGCGGA | -2.15 ± 0.22 | -2.71 ± 0.31
11 | CGCGAGCAAUAUUACGGAAA | -2.72 ± 0.26 | -2.24 ± 0.3
12 | CGCGAGCAAUAUUACGGAUC | -2.62 ± 0.23 | -2.28 ± 0.25
13 | CGCGAGCAAUAUUACGGUAA | -2.58 ± 0.23 | -1.58 ± 0.31
14 | CGCGAGCAAUAUUACGGUAC | -3.55 ± 0.22 | -3.97 ± 0.42
15 | CGCGAGCAAUAUUACGGUCA | -2.23 ± 0.17 | -1.63 ± 0.15
16 | CGCGAGCAAUAUUACGGUUA | -2.88 ± 0.26 | -0.646 ± 0.18
17 | CGCGAGCAAUAUUACGUCGU | -3.51 ± 0.23 | -3.58 ± 0.31
18 | CGCGAGCAAUAUUACGUGAA | -3.57 ± 0.28 | -2.56 ± 0.35
19 | CGCGAGCAAUAUUACGUGCA | -2.08 ± 0.099 | -0.511 ± 0.095
20 | CGCGAGCAAUAUUACGUGGU | -3.27 ± 0.15 | -2.64 ± 0.21
21 | CGCGAGCAAUAUUACGUGUC | -3.46 ± 0.19 | -2.6 ± 0.2
22 | CGCUAGCAAUAUUACGAAGA | -2.12 ± 0.46 | 
23 | CGCUAGCAAUAUUACGAGCG | -4.02 ± 0.39 | -2.69 ± 0.39
24 | CGCUAGCAAUAUUACGAGUA | -0.852 ± 0.11 | -0.525 ± 0.11
25 | CGCUAGCAAUAUUACGCCAA |  | -0.881 ± 0.32

Row | Sequence | self-splicing fitness (ln) (30 °C) | self-splicing fitness (ln) (37 °C)
26 | CGCUAGCAAUAUUACGCCCG | -2.1 ± 0.22 | -0.695 ± 0.35
27 | CGCUAGCAAUAUUACGCCCU | 0.0689 ± 0.15 | -0.957 ± 0.24
28 | CGCUAGCAAUAUUACGCCUG | 0.202 ± 0.13 | 0.152 ± 0.16
29 | CGCUAGCAAUAUUACGCGAG | -2.93 ± 0.28 | -2.56 ± 0.21
30 | CGCUAGCAAUAUUACGCGUC | -3.34 ± 0.32 | -3.09 ± 0.39
31 | CGCUAGCAAUAUUACGCUAG | -2.63 ± 0.22 | -2.16 ± 0.27
32 | CGCUAGCAAUAUUACGGACC | -2.14 ± 0.31 | 
33 | CGCUAGCAAUAUUACGGGAU | -3.77 ± 0.36 | -2.4 ± 0.26
34 | CGCUAGCAAUAUUACGGGGC | -2.87 ± 0.22 | -2.29 ± 0.2
35 | CGCUAGCAAUAUUACGGGGG | -2.53 ± 0.14 | -2.43 ± 0.16
36 | CGCUAGCAAUAUUACGGGUC | -3.08 ± 0.21 | -2.9 ± 0.34
37 | CGCUAGCAAUAUUACGGUAU | -3.03 ± 0.15 | -2.39 ± 0.19
38 | CGCUAGCAAUAUUACGUAAU | -3.03 ± 0.16 | -1.53 ± 0.14
39 | CGCUAGCAAUAUUACGUACC | -1.89 ± 0.27 | -0.55 ± 0.2
40 | CGCUAGCAAUAUUACGUAGC | -3.14 ± 0.31 | -1.68 ± 0.37
41 | CGCUAGCAAUAUUACGUCAA | -3.88 ± 0.23 | -3.07 ± 0.23
42 | CGCUAGCAAUAUUACGUCUA | -2.47 ± 0.22 | -1.59 ± 0.34
43 | CGCUAGCAAUAUUACGUGGG | -3.6 ± 0.17 | -2.74 ± 0.21
44 | CGCUAGCAAUAUUACGUUAC | -3.23 ± 0.31 | 
45 | CGGAAGCAAUAUUACGACCA | 0.623 ± 0.2 | -0.13 ± 0.27
46 | CGGAAGCAAUAUUACGACGA | -1.75 ± 0.21 | -0.502 ± 0.15
47 | CGGAAGCAAUAUUACGACUG | -2.02 ± 0.28 | -1.12 ± 0.23
48 | CGGAAGCAAUAUUACGAGCG | -1.14 ± 0.098 | -1.11 ± 0.095
49 | CGGAAGCAAUAUUACGAUAA |  | -1.52 ± 0.25
50 | CGGAAGCAAUAUUACGCACA | -1.07 ± 0.15 | 0.386 ± 0.16

Row | Sequence | self-splicing fitness (ln) (30 °C) | self-splicing fitness (ln) (37 °C)
51 | CGGAAGCAAUAUUACGCCAC | -3.64 ± 0.18 | -2.78 ± 0.26
52 | CGGAAGCAAUAUUACGCGAU | -3.28 ± 0.28 | -2.05 ± 0.33
53 | CGGAAGCAAUAUUACGGAUU | -4.05 ± 0.2 | -2.36 ± 0.13
54 | CGGAAGCAAUAUUACGGGAG | -2.37 ± 0.1 | -2.02 ± 0.17
55 | CGGAAGCAAUAUUACGGGCU | -3.27 ± 0.18 | -3.3 ± 0.25
56 | CGGAAGCAAUAUUACGUCUG | -3.74 ± 0.2 | -2.46 ± 0.19
57 | CGGAAGCAAUAUUACGUGUG | -1.38 ± 0.051 | -0.291 ± 0.067
58 | CGGAAGCAAUAUUACGUUUG | -1.9 ± 0.071 | -1.35 ± 0.089
59 | CGGCAGCAAUAUUACGACUG | -1.74 ± 0.24 | -0.611 ± 0.26
60 | CGGCAGCAAUAUUACGAGGA | -4.01 ± 0.43 | -2.28 ± 0.26
61 | CGGCAGCAAUAUUACGCACG | -2.17 ± 0.15 | -2.1 ± 0.23
62 | CGGCAGCAAUAUUACGCAGA | -3.27 ± 0.31 | -2.48 ± 0.22
63 | CGGCAGCAAUAUUACGCCAC | -2.97 ± 0.23 | -1.52 ± 0.3
64 | CGGCAGCAAUAUUACGCCAG | -1.53 ± 0.21 | 
65 | CGGCAGCAAUAUUACGCCCC | -1.66 ± 0.31 | -0.44 ± 0.36
66 | CGGCAGCAAUAUUACGCCUC | -3.4 ± 0.27 | -1.59 ± 0.25
67 | CGGCAGCAAUAUUACGCGAA | -2.67 ± 0.13 | -1.68 ± 0.15
68 | CGGCAGCAAUAUUACGCGAC | -4.41 ± 0.42 | -1.36 ± 0.18
69 | CGGCAGCAAUAUUACGCUUC |  | -1.56 ± 0.29
70 | CGGCAGCAAUAUUACGGGAG | -2.36 ± 0.15 | -1.77 ± 0.18
71 | CGGCAGCAAUAUUACGGGAU | -3.24 ± 0.18 | -2.38 ± 0.23
72 | CGGCAGCAAUAUUACGGGUC | -2.95 ± 0.21 | -1.74 ± 0.22
73 | CGGCAGCAAUAUUACGGUCG | -3.51 ± 0.27 | -2.94 ± 0.33
74 | CGGCAGCAAUAUUACGUAGC | -4.16 ± 0.36 | -3.03 ± 0.24
75 | CGGCAGCAAUAUUACGUCAA | -1.53 ± 0.11 | -1.43 ± 0.13

Row | Sequence | self-splicing fitness (ln) (30 °C) | self-splicing fitness (ln) (37 °C)
76 | CGGCAGCAAUAUUACGUCAU | -2.83 ± 0.12 | -1.09 ± 0.092
77 | CGGCAGCAAUAUUACGUGCA | -1.03 ± 0.27 | -0.293 ± 0.23
78 | CGGCAGCAAUAUUACGUGGU | -4.44 ± 0.25 | -1.93 ± 0.12
79 | CGGCAGCAAUAUUACGUUAA | -2.44 ± 0.16 | -1.1 ± 0.11
80 | CGGCAGCAAUAUUACGUUAG | -0.86 ± 0.057 | 0.0318 ± 0.078
81 | CGGGAGCAAUAUUACGAAAG | -2.47 ± 0.42 | -2.55 ± 0.42
82 | CGGGAGCAAUAUUACGACAU | -4.013 ± 0.038 | -2.67 ± 0.046
83 | CGGGAGCAAUAUUACGACGA | -1.82 ± 0.36 | 
84 | CGGGAGCAAUAUUACGAGCA | -3 ± 0.19 | -3.2 ± 0.31
85 | CGGGAGCAAUAUUACGCCAC | -3.63 ± 0.29 | -2.63 ± 0.41
86 | CGGGAGCAAUAUUACGCGAC | -3.85 ± 0.29 | -1.59 ± 0.36
87 | CGGGAGCAAUAUUACGCGGU |  | -1.72 ± 0.29
88 | CGGGAGCAAUAUUACGCUUU |  | -0.957 ± 0.27
89 | CGGGAGCAAUAUUACGGCAC | -3.74 ± 0.28 | -1.62 ± 0.23
90 | CGGGAGCAAUAUUACGGGAG | -2.76 ± 0.22 | -2.44 ± 0.3
91 | CGGGAGCAAUAUUACGGGGG | -2.37 ± 0.3 | 
92 | CGGGAGCAAUAUUACGGUAG | -3.73 ± 0.29 | -2 ± 0.27
93 | CGGGAGCAAUAUUACGGUUG | -1.89 ± 0.44 | 
94 | CGGGAGCAAUAUUACGUAGC | -2.26 ± 0.32 | -1.05 ± 0.22
95 | CGGGAGCAAUAUUACGUAUC | -2.58 ± 0.49 | 
96 | CGGGAGCAAUAUUACGUCAA | -2.14 ± 0.19 | -2.79 ± 0.38
97 | CGGGAGCAAUAUUACGUCUU |  | -0.499 ± 0.36
98 | CGGGAGCAAUAUUACGUUGU | -4.45 ± 0.29 | -2.65 ± 0.26
99 | CGGUAGCAAUAUUACGAACC |  | -1.2 ± 0.31
100 | CGGUAGCAAUAUUACGAAUG | -0.573 ± 0.076 | 0.205 ± 0.097
